# Laboratory results published in patent US20230322953A1 (HARBOUR BIOMED SHANGHAI, published 2023).
# T1: human BCMA (human, UniProt Q02223 1-184)
# T1 construct: whole, on cells; also called hBCMA; TNFRSF17
# T1 sequence (looked up): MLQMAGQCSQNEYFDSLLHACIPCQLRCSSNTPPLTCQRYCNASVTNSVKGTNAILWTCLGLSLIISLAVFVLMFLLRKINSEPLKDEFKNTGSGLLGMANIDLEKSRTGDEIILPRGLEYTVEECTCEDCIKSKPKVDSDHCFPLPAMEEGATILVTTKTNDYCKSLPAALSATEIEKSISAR
# Target: T1, human BCMA
# Test: FACS on NCI-H929 cells
Maximum MFI,EC50 [nM],Binder
2590,,"PR001995 (bispecific antibody, IgG1, CD3 of PR000511, BCMA VH of PR000940; IgG1 knob/hole, AAG) chain 1: EVQLLESGGGLVQPGGSLRLSCAASGFTFNTYAMNWVRQAPGKGLEWVSRIRSKYNNYATYYADSVKDRFTISRDDSKSTLYLQMNSLRAEDTAVYYCVRHGNFGNSYVSWFAYWGQGTLVTVSSASTKGPSVFPLAPSSKSTSGGTAALGCLVKDYFPEPVTVSWNSGALTSGVHTFPAVLQSSGLYSLSSVVTVPSSSLGTQTYICNVNHKPSNTKVDKKVEPKSC chain 2: QAVVTQEPSLTVSPGGTVTLTCRSSTGAVTTSNYANWVQQKPGQAPRGLIGGTNKRAPWTPARFSGSLLGDKAALTLLGAQPEDEAEYFCALWYSNLWVFGGGTKLTVLGQPKAAPSVTLFPPSSEELQANKATLVCLISDFYPGAVTVAWKADSSPVKAGVETTTPSKQSNNKYAASSYLSLTPEQWKSHRSYSCQVTHEGSTVEKTVAPTECSDKTHTCPPCPAPEAAGGPSVFLFPPKPKDTLMISRTPEVTCVVVDVSHEDPEVKFNWYVDGVEVHNAKTKPREEQYNSTYRVVSVLTVLHQDWLNGKEYKCKVSNKALGAPIEKTISKAKGQPREPQVYTLPPCREEMTKNQVSLWCLVKGFYPSDIAVEWESNGQPENNYKTTPPVLDSDGSFFLYSKLTVDKSRWQQGNVFSCSVMHEALHNHYTQKSLSLSPGK chain 3: EVQLLESGGGLVQPGGSLRLSCAASGFTFSSYAMIWVRQAPGKGLEWVSGISESGGSTYYADSVKGRFTISRDNSKNTLYLQMNSLRAEDTAVYFCVKDLDDILTGYYKDYWGQGTLVTVSSASEPKSSDKTHTCPPCPAPEAAGGPSVFLFPPKPKDTLMISRTPEVTCVVVDVSHEDPEVKFNWYVDGVEVHNAKTKPREEQYNSTYRVVSVLTVLHQDWLNGKEYKCKVSNKALGAPIEKTISKAKGQPREPQVCTLPPSREEMTKNQVSLSCAVKGFYPSDIAVEWESNGQPENNYKTTPPVLDSDGSFFLVSKLTVDKSRWQQGNVFSCSVMHEALHNHYTQKSLSLSPGK"
3320,,"PR001996 (bispecific antibody, IgG1, BCMAxCD3, Fab(cross Fd/LC)-Fc-VH (structure 13); CD3 of PR000511, BCMA VH of PR000943; IgG1 knob/hole, AAG) chain 1: EVQLLESGGGLVQPGGSLRLSCAASGFTFNTYAMNWVRQAPGKGLEWVSRIRSKYNNYATYYADSVKDRFTISRDDSKSTLYLQMNSLRAEDTAVYYCVRHGNFGNSYVSWFAYWGQGTLVTVSSASTKGPSVFPLAPSSKSTSGGTAALGCLVKDYFPEPVTVSWNSGALTSGVHTFPAVLQSSGLYSLSSVVTVPSSSLGTQTYICNVNHKPSNTKVDKKVEPKSC chain 2: QAVVTQEPSLTVSPGGTVTLTCRSSTGAVTTSNYANWVQQKPGQAPRGLIGGTNKRAPWTPARFSGSLLGDKAALTLLGAQPEDEAEYFCALWYSNLWVFGGGTKLTVLGQPKAAPSVTLFPPSSEELQANKATLVCLISDFYPGAVTVAWKADSSPVKAGVETTTPSKQSNNKYAASSYLSLTPEQWKSHRSYSCQVTHEGSTVEKTVAPTECSDKTHTCPPCPAPEAAGGPSVFLFPPKPKDTLMISRTPEVTCVVVDVSHEDPEVKFNWYVDGVEVHNAKTKPREEQYNSTYRVVSVLTVLHQDWLNGKEYKCKVSNKALGAPIEKTISKAKGQPREPQVYTLPPCREEMTKNQVSLWCLVKGFYPSDIAVEWESNGQPENNYKTTPPVLDSDGSFFLYSKLTVDKSRWQQGNVFSCSVMHEALHNHYTQKSLSLSPGK chain 3: EVQLVETGGGLIQPGGSLRLSCAASGFPVSSNYMSWVRQAPGKGLEWVSVIFSGGRTYYADSVKGRFTISRDNSKNTLYLQMNSLRAEDTAVYYCARRNWIDGRDAFDIWGQGTMVTVSSASEPKSSDKTHTCPPCPAPEAAGGPSVFLFPPKPKDTLMISRTPEVTCVVVDVSHEDPEVKFNWYVDGVEVHNAKTKPREEQYNSTYRVVSVLTVLHQDWLNGKEYKCKVSNKALGAPIEKTISKAKGQPREPQVCTLPPSREEMTKNQVSLSCAVKGFYPSDIAVEWESNGQPENNYKTTPPVLDSDGSFFLVSKLTVDKSRWQQGNVFSCSVMHEALHNHYTQKSLSLSPGK"
1460,,"PR001997 (bispecific antibody, IgG1, BCMAxCD3, Fab(cross Fd/LC)-Fc-VH (structure 13); CD3 of PR000511, BCMA VH of PR001035; IgG1 knob/hole, AAG) chain 1: EVQLLESGGGLVQPGGSLRLSCAASGFTFNTYAMNWVRQAPGKGLEWVSRIRSKYNNYATYYADSVKDRFTISRDDSKSTLYLQMNSLRAEDTAVYYCVRHGNFGNSYVSWFAYWGQGTLVTVSSASTKGPSVFPLAPSSKSTSGGTAALGCLVKDYFPEPVTVSWNSGALTSGVHTFPAVLQSSGLYSLSSVVTVPSSSLGTQTYICNVNHKPSNTKVDKKVEPKSC chain 2: QAVVTQEPSLTVSPGGTVTLTCRSSTGAVTTSNYANWVQQKPGQAPRGLIGGTNKRAPWTPARFSGSLLGDKAALTLLGAQPEDEAEYFCALWYSNLWVFGGGTKLTVLGQPKAAPSVTLFPPSSEELQANKATLVCLISDFYPGAVTVAWKADSSPVKAGVETTTPSKQSNNKYAASSYLSLTPEQWKSHRSYSCQVTHEGSTVEKTVAPTECSDKTHTCPPCPAPEAAGGPSVFLFPPKPKDTLMISRTPEVTCVVVDVSHEDPEVKFNWYVDGVEVHNAKTKPREEQYNSTYRVVSVLTVLHQDWLNGKEYKCKVSNKALGAPIEKTISKAKGQPREPQVYTLPPCREEMTKNQVSLWCLVKGFYPSDIAVEWESNGQPENNYKTTPPVLDSDGSFFLYSKLTVDKSRWQQGNVFSCSVMHEALHNHYTQKSLSLSPGK chain 3: EVQLVETGGGLIQPGGSLRLSCAASGFTVSSNYMTWVRQAPGKGLEWVSVIFSGGSTYYADSVKGRFTISRDNSKNTLYLQMNSLRAEDTAVYYCARRIAVAGHDVFDIWGQGTMVTVSSASEPKSSDKTHTCPPCPAPEAAGGPSVFLFPPKPKDTLMISRTPEVTCVVVDVSHEDPEVKFNWYVDGVEVHNAKTKPREEQYNSTYRVVSVLTVLHQDWLNGKEYKCKVSNKALGAPIEKTISKAKGQPREPQVCTLPPSREEMTKNQVSLSCAVKGFYPSDIAVEWESNGQPENNYKTTPPVLDSDGSFFLVSKLTVDKSRWQQGNVFSCSVMHEALHNHYTQKSLSLSPGK"
12500,1.7,"PR003869 (bispecific antibody, human IgG1, lambda, L234A L235A, BCMAxCD3, Fab-Fc-VH (structure 11); CD3 Fab of PR003886, BCMA VH of PR004564; IgG1 knob/hole, LALA) light: QAVVTQEPSLTVSPGGTVTLTCRSSTGAVTTSNYANWVQQKPGQAPRGLIGGTNKRAPWTPARFSGSLLGDKAALTLLGAQPEDEAEYFCALWYSNLWVFGGGTKLTVLGQPKAAPSVTLFPPSSEELQANKATLVCLISDFYPGAVTVAWKADSSPVKAGVETTTPSKQSNNKYAASSYLSLTPEQWKSHRSYSCQVTHEGSTVEKTVAPTECS heavy: not shown EVQLVETGGGLIQPGGSLRLSCAASGFTVSDSYMTWVRQAPGKGLEWVSVIFSGGRTYYSDSVKGRFTISRDNAKNTLYLQMNSLRAEDTALYYCARRNYDQTLGTDVFDIWGQGTMVTVSSASEPKSSDKTHTCPPCPAPEAAGGPSVFLFPPKPKDTLMISRTPEVTCVVVDVSHEDPEVKFNWYVDGVEVHNAKTKPREEQYNSTYRVVSVLTVLHQDWLNGKEYKCKVSNKALPAPIEKTISKAKGQPREPQVCTLPPSREEMTKNQVSLSCAVKGFYPSDIAVEWESNGQPENNYKTTPPVLDSDGSFFLVSKLTVDKSRWQQGNVFSCSVMHEALHNHYTQKSLSLSPGK"
3260,,"PR001998 (bispecific antibody, IgG1, BCMAxCD3, Fab(cross Fd/LC)-Fc-VH (structure 13); CD3 of PR000511, BCMA VH of PR001046; IgG1 knob/hole, AAG) chain 1: EVQLLESGGGLVQPGGSLRLSCAASGFTFNTYAMNWVRQAPGKGLEWVSRIRSKYNNYATYYADSVKDRFTISRDDSKSTLYLQMNSLRAEDTAVYYCVRHGNFGNSYVSWFAYWGQGTLVTVSSASTKGPSVFPLAPSSKSTSGGTAALGCLVKDYFPEPVTVSWNSGALTSGVHTFPAVLQSSGLYSLSSVVTVPSSSLGTQTYICNVNHKPSNTKVDKKVEPKSC chain 2: QAVVTQEPSLTVSPGGTVTLTCRSSTGAVTTSNYANWVQQKPGQAPRGLIGGTNKRAPWTPARFSGSLLGDKAALTLLGAQPEDEAEYFCALWYSNLWVFGGGTKLTVLGQPKAAPSVTLFPPSSEELQANKATLVCLISDFYPGAVTVAWKADSSPVKAGVETTTPSKQSNNKYAASSYLSLTPEQWKSHRSYSCQVTHEGSTVEKTVAPTECSDKTHTCPPCPAPEAAGGPSVFLFPPKPKDTLMISRTPEVTCVVVDVSHEDPEVKFNWYVDGVEVHNAKTKPREEQYNSTYRVVSVLTVLHQDWLNGKEYKCKVSNKALGAPIEKTISKAKGQPREPQVYTLPPCREEMTKNQVSLWCLVKGFYPSDIAVEWESNGQPENNYKTTPPVLDSDGSFFLYSKLTVDKSRWQQGNVFSCSVMHEALHNHYTQKSLSLSPGK chain 3: EVQLVETGGGLIQPGGSLRLSCAASGFTVSDNYMTWVRQAPGKGLEWVSVIFSGGNTYYADSVKGRFTISRDNAKNTLYLQMNSLRAEDTALYYCARRNYDDTRGTDVFDIWGQGTMVTVSSASEPKSSDKTHTCPPCPAPEAAGGPSVFLFPPKPKDTLMISRTPEVTCVVVDVSHEDPEVKFNWYVDGVEVHNAKTKPREEQYNSTYRVVSVLTVLHQDWLNGKEYKCKVSNKALGAPIEKTISKAKGQPREPQVCTLPPSREEMTKNQVSLSCAVKGFYPSDIAVEWESNGQPENNYKTTPPVLDSDGSFFLVSKLTVDKSRWQQGNVFSCSVMHEALHNHYTQKSLSLSPGK"
11300,1.1,"PR003872 (bispecific antibody, human IgG1, lambda, L234A L235A, BCMAxCD3, Fab-Fc-VH (structure 11); CD3 Fab of PR003886, BCMA VH of PR004567; IgG1 knob/hole, LALA) light: QAVVTQEPSLTVSPGGTVTLTCRSSTGAVTTSNYANWVQQKPGQAPRGLIGGTNKRAPWTPARFSGSLLGDKAALTLLGAQPEDEAEYFCALWYSNLWVFGGGTKLTVLGQPKAAPSVTLFPPSSEELQANKATLVCLISDFYPGAVTVAWKADSSPVKAGVETTTPSKQSNNKYAASSYLSLTPEQWKSHRSYSCQVTHEGSTVEKTVAPTECS heavy: not shown EVQLVETGGGLIQPGGSLRLSCAASGFTVSDSYMTWVRQAPGKGLEWVSVIFSGGKTYVADSVKGRFTISRDNAKNTLYLQMNSLRAEDTALYYCARRNYDQTRGTDVFDIWGQGTMVTVSSASEPKSSDKTHTCPPCPAPEAAGGPSVFLFPPKPKDTLMISRTPEVTCVVVDVSHEDPEVKFNWYVDGVEVHNAKTKPREEQYNSTYRVVSVLTVLHQDWLNGKEYKCKVSNKALPAPIEKTISKAKGQPREPQVCTLPPSREEMTKNQVSLSCAVKGFYPSDIAVEWESNGQPENNYKTTPPVLDSDGSFFLVSKLTVDKSRWQQGNVFSCSVMHEALHNHYTQKSLSLSPGK"
10600,3.3,"PR003870 (bispecific antibody, human IgG1, lambda, L234A L235A, BCMAxCD3, Fab-Fc-VH (structure 11); CD3 Fab of PR003886, BCMA VH of PR004565; IgG1 knob/hole, LALA) light: QAVVTQEPSLTVSPGGTVTLTCRSSTGAVTTSNYANWVQQKPGQAPRGLIGGTNKRAPWTPARFSGSLLGDKAALTLLGAQPEDEAEYFCALWYSNLWVFGGGTKLTVLGQPKAAPSVTLFPPSSEELQANKATLVCLISDFYPGAVTVAWKADSSPVKAGVETTTPSKQSNNKYAASSYLSLTPEQWKSHRSYSCQVTHEGSTVEKTVAPTECS heavy: not shown EVQLVETGGGLIQPGGSLRLSCAASGFTVSDAYMTWVRQAPGKGLEWVSVIFSGGNTYVSDSVKGRFTISRDNAKNTLYLQMNSLRAEDTALYYCARRNYDQTIGTDVFDIWGQGTMVTVSSASEPKSSDKTHTCPPCPAPEAAGGPSVFLFPPKPKDTLMISRTPEVTCVVVDVSHEDPEVKFNWYVDGVEVHNAKTKPREEQYNSTYRVVSVLTVLHQDWLNGKEYKCKVSNKALPAPIEKTISKAKGQPREPQVCTLPPSREEMTKNQVSLSCAVKGFYPSDIAVEWESNGQPENNYKTTPPVLDSDGSFFLVSKLTVDKSRWQQGNVFSCSVMHEALHNHYTQKSLSLSPGK"
